B1: DH1041, SARS-CoV-2-specific ACE2-binding site-focused RBD neutralizing antibody (antibody, V domains shown)
VH: EVQLVESGGGLVQPGGSLRLSCAASGVTFSSYWMSWVRQAPGKGLEWVANIRQDGSEKYSVDSVKGRFTISRDNAKNSLYLQMNSLRAEDTAVYYCARARRADNSGYYGFHFDCWGQGTLVTVSS
VL: QSVLTQPPSVSGAPGQRVTISCTGSSSNIGAGYDVHWYQQLPGTAPKLLIYGNNNRPSGVPDRFSDSKSGTSASLAITRLQAEDEADYYCQSYDSSLSGWVFGGGTKLTVL
B2: DH1047 antigen binding fragment (Fab) (Fab, V domains shown)
VH: QVQLVQSGAEVKKPGASVQVSCQASANTFTNHYIHWVRQAPGQGLEWMGIIYPTGGNTIYAQGFQGRVTMTRDTSLNTIYLELSSLRSEDTAVYYCARDVRVDDSWSGYDLLSGGTYFDYWGQGTLVTVSS
VL: not shown

What was measured:
[1] = target: SARS-CoV-2 RBD sortase A conjugated nanoparticle (24-mer SARS-CoV-2 RBD-ferritin nanoparticle) (SARS-CoV-2, Wuhan strain, UniProt P0DTC2); assay: BLI
[2] = target: T1, monomeric SARS-CoV-2 RBD (wildtype Spike RBD monomer) (SARS-CoV-2, Wuhan strain, UniProt P0DTC2); assay: ELISA
[3] = target: T1, monomeric SARS-CoV-2 RBD (wildtype …); assay: SPR

Row | Binder | binding result [1] | binding result [2] | Kd [3]
1 | B1 | binds | binds | 
2 | B2 |  |  | < 0.02 nM
